Assay results reported in article PMC10515612, “Analytical Ultracentrifugation-Calibrated Anion-Exchange Chromatography for Sensitive and Intact Determination of Osteopontin in Infant Formula and Dairy Products” (Journal of Agricultural and Food Chemistry, 2023).
Several values for one entry are separate records, joined by “and”; a condition that tells them apart may be missing. Identical values can stand only once.

Molecular target: the molecule itself
Assay: AUC; sedimentation velocity, interference optics, OPN 1 mg/mL, 20 °C, 50,000 rpm; buffer changed from 20 mM THAM (10 mM NaCl, pH 8.00) to 20 mM PBS

B1: Osteopontin (bovine milk osteopontin, in-house reference standard) (natural protein)
chain: not shown
modifications: phosphorylations (~1.7 kDa) and O-linked glycosylations (2.9 kDa) on the full-length form; sites not given
notes: Osteopontin, bovine, from milk; By MALDI-TOF the material also holds an N-terminal fragment (150 amino acids, ~19.8 kDa); The sample is a mixture of full-length OPN and an N-terminal fragment of about 150 residues; also called OPN; bovine OPN; source: high-purity OPN protein ingredient extracted and provided by Arla Foods Ingredients (Denmark)
stoichiometry N: 4 and 8
